Experimental data published in US20210388087A1 (Chugai, published 2021).

Molecular target: T1, CD3 epsilon homodimer protein (UniProt P07766 23-126)
T1 construct: immobilized on Sensor chip CM4 by amine coupling; also called CD3 (CD3 epsilon)
Experiment: SPR (Biacore T200), CD3 epsilon homodimer on CM4 chip, one-arm antibody as analyte, 25 C;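 also: homodimer attached to the sensor surface via amine coupling, HBS-EP+ used as running buffer during binding runs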

T1 sequence (P07766 23-126): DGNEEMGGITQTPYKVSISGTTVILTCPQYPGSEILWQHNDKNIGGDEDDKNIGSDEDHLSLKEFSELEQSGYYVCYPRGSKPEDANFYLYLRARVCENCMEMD

ratio of amounts bound (altered form / CE115HA000) | Binder
0.84 | CE115HA000 N54S one-arm antibody (antibody, human IgG1, kappa, L234A L235A, N297A, name in Kabat numbering) heavy: QVQLVESGGGVVQPGRSLRLSCAASGFTFSNAWMHWVRQAPGKGLEWVAQIKAKSNSYATYYAESVKGRFTISRDDSKNSLYLQMNSLKTEDTAVYYCRYVHYGAYYGVDAWGQGTTVTVSSASTKGPSVFPLAPSSKSTSGGTAALGCLVKDYFPEPVTVSWNSGALTSGVHTFPAVLQSSGLYSLSSVVTVPSSSLGTQTYICNVNHKPSNTKVDKKVEPKSCDKTHTCPPCPAPEAAGGPSVFLFPPKPKDTLMISRTPEVTCVVVDVSHEDPEVKFNWYVDGVEVHNAKTKPREEQYASTYRVVSVLTVLHQDWLNGKEYKCKVSNKALPAPIEKTISKAKGQPREPQVYTLPPSRCELTKNQVSLSCAVKGFYPSDIAVEWESNGQPENNYKTTPPVLDSDGSFFLVSKLTVDKSRWQQGNVFSCSVMHEALHNHYTQKSLSLSPDYKDDDDK EPKSSDKTHTCPPCPAPELLGGPSVFLFPPKPKDTLMISRTPEVTCVVVDVSHEDPEVKFNWYVDGVEVHNAKTKPREEQYNSTYRVVSVLTVLHQDWLNGKEYKCKVSNKALPAPIEKTISKAKGQPREPQVCTLPPSRDELTKNQVSLWCLVKGFYPSDIAVEWESNGQPENNYKTTPPVLDSDGSFFLYSKLTVDKSRWQQGNVFSCSVMHEALHNRYTQKSLSLSP light: DIVMTQSPLSLPVTPGEPASISCRSSQSLVHSNRNTYLHWYQQKPGQAPRLLIYKVSNRFSGVPDRFSGSGSGTDFTLKISRVEAEDVGVYYCGQGTQVPYTFGQGTKLEIKRTVAAPSVFIFPPSDEQLKSGTASVVCLLNNFYPREAKVQWKVDNALQSGNSQESVTEQDSKDSTYSLSSTLTLSKADYEKHKVYACEVTHQGLSSPVTKSFNRGEC
0.73 | CE115HA000 N82aD one-arm antibody (antibody, human IgG1, kappa, L234A L235A, N297A, name in Kabat numbering) heavy: QVQLVESGGGVVQPGRSLRLSCAASGFTFSNAWMHWVRQAPGKGLEWVAQIKAKSNNYATYYAESVKGRFTISRDDSKNSLYLQMDSLKTEDTAVYYCRYVHYGAYYGVDAWGQGTTVTVSSASTKGPSVFPLAPSSKSTSGGTAALGCLVKDYFPEPVTVSWNSGALTSGVHTFPAVLQSSGLYSLSSVVTVPSSSLGTQTYICNVNHKPSNTKVDKKVEPKSCDKTHTCPPCPAPEAAGGPSVFLFPPKPKDTLMISRTPEVTCVVVDVSHEDPEVKFNWYVDGVEVHNAKTKPREEQYASTYRVVSVLTVLHQDWLNGKEYKCKVSNKALPAPIEKTISKAKGQPREPQVYTLPPSRCELTKNQVSLSCAVKGFYPSDIAVEWESNGQPENNYKTTPPVLDSDGSFFLVSKLTVDKSRWQQGNVFSCSVMHEALHNHYTQKSLSLSPDYKDDDDK EPKSSDKTHTCPPCPAPELLGGPSVFLFPPKPKDTLMISRTPEVTCVVVDVSHEDPEVKFNWYVDGVEVHNAKTKPREEQYNSTYRVVSVLTVLHQDWLNGKEYKCKVSNKALPAPIEKTISKAKGQPREPQVCTLPPSRDELTKNQVSLWCLVKGFYPSDIAVEWESNGQPENNYKTTPPVLDSDGSFFLYSKLTVDKSRWQQGNVFSCSVMHEALHNRYTQKSLSLSP light: DIVMTQSPLSLPVTPGEPASISCRSSQSLVHSNRNTYLHWYQQKPGQAPRLLIYKVSNRFSGVPDRFSGSGSGTDFTLKISRVEAEDVGVYYCGQGTQVPYTFGQGTKLEIKRTVAAPSVFIFPPSDEQLKSGTASVVCLLNNFYPREAKVQWKVDNALQSGNSQESVTEQDSKDSTYSLSSTLTLSKADYEKHKVYACEVTHQGLSSPVTKSFNRGEC
1.09 | CE115HA000 N54Y one-arm antibody (antibody, human IgG1, kappa, L234A L235A, N297A, name in Kabat numbering) heavy: QVQLVESGGGVVQPGRSLRLSCAASGFTFSNAWMHWVRQAPGKGLEWVAQIKAKSNYYATYYAESVKGRFTISRDDSKNSLYLQMNSLKTEDTAVYYCRYVHYGAYYGVDAWGQGTTVTVSSASTKGPSVFPLAPSSKSTSGGTAALGCLVKDYFPEPVTVSWNSGALTSGVHTFPAVLQSSGLYSLSSVVTVPSSSLGTQTYICNVNHKPSNTKVDKKVEPKSCDKTHTCPPCPAPEAAGGPSVFLFPPKPKDTLMISRTPEVTCVVVDVSHEDPEVKFNWYVDGVEVHNAKTKPREEQYASTYRVVSVLTVLHQDWLNGKEYKCKVSNKALPAPIEKTISKAKGQPREPQVYTLPPSRCELTKNQVSLSCAVKGFYPSDIAVEWESNGQPENNYKTTPPVLDSDGSFFLVSKLTVDKSRWQQGNVFSCSVMHEALHNHYTQKSLSLSPDYKDDDDK EPKSSDKTHTCPPCPAPELLGGPSVFLFPPKPKDTLMISRTPEVTCVVVDVSHEDPEVKFNWYVDGVEVHNAKTKPREEQYNSTYRVVSVLTVLHQDWLNGKEYKCKVSNKALPAPIEKTISKAKGQPREPQVCTLPPSRDELTKNQVSLWCLVKGFYPSDIAVEWESNGQPENNYKTTPPVLDSDGSFFLYSKLTVDKSRWQQGNVFSCSVMHEALHNRYTQKSLSLSP light: DIVMTQSPLSLPVTPGEPASISCRSSQSLVHSNRNTYLHWYQQKPGQAPRLLIYKVSNRFSGVPDRFSGSGSGTDFTLKISRVEAEDVGVYYCGQGTQVPYTFGQGTKLEIKRTVAAPSVFIFPPSDEQLKSGTASVVCLLNNFYPREAKVQWKVDNALQSGNSQESVTEQDSKDSTYSLSSTLTLSKADYEKHKVYACEVTHQGLSSPVTKSFNRGEC
0.92 | CE115HA000 N76S one-arm antibody (antibody, human IgG1, kappa, L234A L235A, N297A, name in Kabat numbering) heavy: QVQLVESGGGVVQPGRSLRLSCAASGFTFSNAWMHWVRQAPGKGLEWVAQIKAKSNNYATYYAESVKGRFTISRDDSKSSLYLQMNSLKTEDTAVYYCRYVHYGAYYGVDAWGQGTTVTVSSASTKGPSVFPLAPSSKSTSGGTAALGCLVKDYFPEPVTVSWNSGALTSGVHTFPAVLQSSGLYSLSSVVTVPSSSLGTQTYICNVNHKPSNTKVDKKVEPKSCDKTHTCPPCPAPEAAGGPSVFLFPPKPKDTLMISRTPEVTCVVVDVSHEDPEVKFNWYVDGVEVHNAKTKPREEQYASTYRVVSVLTVLHQDWLNGKEYKCKVSNKALPAPIEKTISKAKGQPREPQVYTLPPSRCELTKNQVSLSCAVKGFYPSDIAVEWESNGQPENNYKTTPPVLDSDGSFFLVSKLTVDKSRWQQGNVFSCSVMHEALHNHYTQKSLSLSPDYKDDDDK EPKSSDKTHTCPPCPAPELLGGPSVFLFPPKPKDTLMISRTPEVTCVVVDVSHEDPEVKFNWYVDGVEVHNAKTKPREEQYNSTYRVVSVLTVLHQDWLNGKEYKCKVSNKALPAPIEKTISKAKGQPREPQVCTLPPSRDELTKNQVSLWCLVKGFYPSDIAVEWESNGQPENNYKTTPPVLDSDGSFFLYSKLTVDKSRWQQGNVFSCSVMHEALHNRYTQKSLSLSP light: DIVMTQSPLSLPVTPGEPASISCRSSQSLVHSNRNTYLHWYQQKPGQAPRLLIYKVSNRFSGVPDRFSGSGSGTDFTLKISRVEAEDVGVYYCGQGTQVPYTFGQGTKLEIKRTVAAPSVFIFPPSDEQLKSGTASVVCLLNNFYPREAKVQWKVDNALQSGNSQESVTEQDSKDSTYSLSSTLTLSKADYEKHKVYACEVTHQGLSSPVTKSFNRGEC

More lines, now with the values behind:

Binder | ratio of amounts bound (altered form / CE115HA000)
CE115HA000 N54L one-arm antibody (antibody, human IgG1, kappa, L234A L235A, N297A, name in Kabat numbering) heavy: QVQLVESGGGVVQPGRSLRLSCAASGFTFSNAWMHWVRQAPGKGLEWVAQIKAKSNLYATYYAESVKGRFTISRDDSKNSLYLQMNSLKTEDTAVYYCRYVHYGAYYGVDAWGQGTTVTVSSASTKGPSVFPLAPSSKSTSGGTAALGCLVKDYFPEPVTVSWNSGALTSGVHTFPAVLQSSGLYSLSSVVTVPSSSLGTQTYICNVNHKPSNTKVDKKVEPKSCDKTHTCPPCPAPEAAGGPSVFLFPPKPKDTLMISRTPEVTCVVVDVSHEDPEVKFNWYVDGVEVHNAKTKPREEQYASTYRVVSVLTVLHQDWLNGKEYKCKVSNKALPAPIEKTISKAKGQPREPQVYTLPPSRCELTKNQVSLSCAVKGFYPSDIAVEWESNGQPENNYKTTPPVLDSDGSFFLVSKLTVDKSRWQQGNVFSCSVMHEALHNHYTQKSLSLSPDYKDDDDK EPKSSDKTHTCPPCPAPELLGGPSVFLFPPKPKDTLMISRTPEVTCVVVDVSHEDPEVKFNWYVDGVEVHNAKTKPREEQYNSTYRVVSVLTVLHQDWLNGKEYKCKVSNKALPAPIEKTISKAKGQPREPQVCTLPPSRDELTKNQVSLWCLVKGFYPSDIAVEWESNGQPENNYKTTPPVLDSDGSFFLYSKLTVDKSRWQQGNVFSCSVMHEALHNRYTQKSLSLSP light: DIVMTQSPLSLPVTPGEPASISCRSSQSLVHSNRNTYLHWYQQKPGQAPRLLIYKVSNRFSGVPDRFSGSGSGTDFTLKISRVEAEDVGVYYCGQGTQVPYTFGQGTKLEIKRTVAAPSVFIFPPSDEQLKSGTASVVCLLNNFYPREAKVQWKVDNALQSGNSQESVTEQDSKDSTYSLSSTLTLSKADYEKHKVYACEVTHQGLSSPVTKSFNRGEC | 0.94
CE115HA000 N54Q one-arm antibody (antibody, human IgG1, kappa, L234A L235A, N297A, name in Kabat numbering) heavy: QVQLVESGGGVVQPGRSLRLSCAASGFTFSNAWMHWVRQAPGKGLEWVAQIKAKSNQYATYYAESVKGRFTISRDDSKNSLYLQMNSLKTEDTAVYYCRYVHYGAYYGVDAWGQGTTVTVSSASTKGPSVFPLAPSSKSTSGGTAALGCLVKDYFPEPVTVSWNSGALTSGVHTFPAVLQSSGLYSLSSVVTVPSSSLGTQTYICNVNHKPSNTKVDKKVEPKSCDKTHTCPPCPAPEAAGGPSVFLFPPKPKDTLMISRTPEVTCVVVDVSHEDPEVKFNWYVDGVEVHNAKTKPREEQYASTYRVVSVLTVLHQDWLNGKEYKCKVSNKALPAPIEKTISKAKGQPREPQVYTLPPSRCELTKNQVSLSCAVKGFYPSDIAVEWESNGQPENNYKTTPPVLDSDGSFFLVSKLTVDKSRWQQGNVFSCSVMHEALHNHYTQKSLSLSPDYKDDDDK EPKSSDKTHTCPPCPAPELLGGPSVFLFPPKPKDTLMISRTPEVTCVVVDVSHEDPEVKFNWYVDGVEVHNAKTKPREEQYNSTYRVVSVLTVLHQDWLNGKEYKCKVSNKALPAPIEKTISKAKGQPREPQVCTLPPSRDELTKNQVSLWCLVKGFYPSDIAVEWESNGQPENNYKTTPPVLDSDGSFFLYSKLTVDKSRWQQGNVFSCSVMHEALHNRYTQKSLSLSP light: DIVMTQSPLSLPVTPGEPASISCRSSQSLVHSNRNTYLHWYQQKPGQAPRLLIYKVSNRFSGVPDRFSGSGSGTDFTLKISRVEAEDVGVYYCGQGTQVPYTFGQGTKLEIKRTVAAPSVFIFPPSDEQLKSGTASVVCLLNNFYPREAKVQWKVDNALQSGNSQESVTEQDSKDSTYSLSSTLTLSKADYEKHKVYACEVTHQGLSSPVTKSFNRGEC | 0.84
